The text below walks through data of patent publication US12031137B2, “Compositions comprising SASP modulators and senescence attenuators and uses thereof for modulating cellular senescence” (RSEM, LIMITED PARTNERSHIP, priority 2016, dated 2024).

Bounds are passed on as bounds.

The subject of this experiment is SEMA3A-FC. The experiment can be described thus: Sema 3A binding assay on plate-coated purified traps (saturation curves, KD). The conditions noted are these: for Binding to SEMA3A: Table 2, Yes/No; for SEMA 3A-FC binding (dissociation constant) / Kd: traps coated on plate, overnight incubation; for Kd: read-out: SEMA 3A-FC binding (dissociation constant). Here is the method:
Sema 3A and AP-VEGF165 binding assays. Saturation curves for the determinations of KD of binding to SEMA 3A or VEGF165 were obtained as follow. Wells of high protein binding 96 well plates (Maxisorp, Nunc) were coated with purified traps diluted in PBS and blocked afterward with binding buffer (PBS containing 2% casein and 0.05% Tween 20). The SEMA3A-FC (R&D systems) or AP-VEGF165 ligands were diluted in binding buffer over an extensive range of concentrations and added to wells. Following an overnight incubation, wells were washed with PBS containing 0.05% tween. Bound SEMA3a-FC was detected using an HRP-linked anti-Human IgG (Biorad) and ECL substrate (Pierce). Alternatively, bound AP-VEGF165 was detected using CPD star substrate (Roche). The Chemiluminescent signal was acquired on a TECAN reader. Dissociation constant (KD) were determined by non-linear curve fitting using the Graph Pad prism software.
The relative affinity of traps of the present invention to SEMA3A and VEGF has been assessed. Traps were prepared as described in Example 8.

In the case of “Iso-c: Secreted NRP1 isoform-c/Siv; 609 amino acids; a1a2-b1b2-c (in part); SEQ ID NO: 45”, the “Binding to SEMA3A” value is reported as “Yes”.

“Trap O: NRP1 trap a1a2-b1b2, aa about 22-583; SEQ ID NOs 77/78”: the “Binding to SEMA3A” value is “Yes”.

Take “Iso-b: Secreted NRP1 isoform-b/S12; 644 amino acids; a1a2-b1b2-c (in part); SEQ ID NO: 44”: the “Binding to SEMA3A” value is “Yes”.

As to “Iso-d: Secreted NRP1 isoform S11; 704 amino acids; a1a2-b1b2-c (in part); SEQ ID NO: 46”, the “Binding to SEMA3A” value was “Yes”.

B1: Trap P: NRP1 trap a1a2-b1, aa about 22-424, Y297A; SEQ ID NOs 83/84 (protein)
chain: FRNDKCGDTIKIESPGYLTSPGYPHSYHPSEKCEWLIQAPDPYQRIMINFNPHFDLEDRDCKYDYVEVFDGENENGHFRGKFCGKIAPPPVVSSGPFLFIKFVSDYETHGAGFSIRYELFKRGPECSQNYTTPSGVIKSPGFPEKYPNSLECTYIVFAPKMSEIILEFESFDLEPDSNPPGGMFCRYDRLEIWDGFPDVGPHIGRYCGQKTPGRIRSSSGILSMVFYTDSAIAKEGFSANYSVLQSSVSEDFKCMEALGMESGEIHSDQITASSQASTNWSAERSRLNYPENGWTPGEDSYREWIQVDLGLLRFVTAVGTQGAISKETKKKYYVKTYKIDVSSNGEDWITIKEGNKPVLFQGNTNPTDVVVAVFPKPLITRFVRIKPATWETGISMRFEVYGCRSGSKENLYFQG
In the case of B1, the “Binding to SEMA3A” value is “No” and the “SEMA 3A-FC binding (dissociation constant)” value (“SEMA 3A-FC binding” below) is reported as “No binding”.

B2: Trap R: NRP1 trap a1a2-b1b2-c, aa about 22-856, Y297A; SEQ ID NOs 69/70 (protein)
chain: FRNDKCGDTIKIESPGYLTSPGYPHSYHPSEKCEWLIQAPDPYQRIMINFNPHFDLEDRDCKYDYVEVFDGENENGHFRGKFCGKIAPPPVVSSGPFLFIKFVSDYETHGAGFSIRYELFKRGPECSQNYTTPSGVIKSPGFPEKYPNSLECTYIVFAPKMSEIILEFESFDLEPDSNPPGGMFCRYDRLEIWDGFPDVGPHIGRYCGQKTPGRIRSSSGILSMVFYTDSAIAKEGFSANYSVLQSSVSEDFKCMEALGMESGEIHSDQITASSQASTNWSAERSRLNYPENGWTPGEDSYREWIQVDLGLLRFVTAVGTQGAISKETKKKYYVKTYKIDVSSNGEDWITIKEGNKPVLFQGNTNPTDVVVAVFPKPLITRFVRIKPATWETGISMRFEVYGCKITDYPCSGMLGMVSGLISDSQITSSNQGDRNWMPENIRLVTSRSGWALPPAPHSYINEWLQIDLGEEKIVRGIIIQGGKHRENKVFMRKFKIGYSNNGSDWKMIMDDSKRKAKSFEGNNNYDTPELRTFPALSTRFIRIYPERATHGGLGLRMELLGCEVEAPTAGPTTPNGNLVDECDDDQANCHSGTGDDFQLTGGTTVLATEKPTVIDSTIQSEFPTYGFNCEFGWGSHKTFCHWEHDNHVQLKWSVLTSKTGPIQDHTGDGNFIYSQADENQKGKVARLVSPVVYSQNSAHCMTFWYHMSGSHVGTLRVKLRYQKPEEYDQLVWMAIGHQGDHWKEGRVLLHKSLKLYQVIFEGEIGKGNLGGIAVDDISINNHISQEDCAKPADLDKKNPEIKIDETGSTPGYEGEGEGDKNISRKPGNVLKTLDPRSGSKENLYFQG
As to B2, the “Binding to SEMA3A” value was “Yes” and the Kd came out at 6.15 nM.

B3: Trap X: NRP1 trap a1a2-b1-c, aa about 22-430 and 584-856, Y297A; SEQ ID NOs 89/90 (protein)
chain: FRNDKCGDTIKIESPGYLTSPGYPHSYHPSEKCEWLIQAPDPYQRIMINFNPHFDLEDRDCKYDYVEVFDGENENGHFRGKFCGKIAPPPVVSSGPFLFIKFVSDYETHGAGFSIRYELFKRGPECSQNYTTPSGVIKSPGFPEKYPNSLECTYIVFAPKMSEIILEFESFDLEPDSNPPGGMFCRYDRLEIWDGFPDVGPHIGRYCGQKTPGRIRSSSGILSMVFYTDSAIAKEGFSANYSVLQSSVSEDFKCMEALGMESGEIHSDQITASSQASTNWSAERSRLNYPENGWTPGEDSYREWIQVDLGLLRFVTAVGTQGAISKETKKKYYVKTYKIDVSSNGEDWITIKEGNKPVLFQGNTNPTDVVVAVFPKPLITRFVRIKPATWETGISMRFEVYGCKITDYPEVEAPTAGPTTPNGNLVDECDDDQANCHSGTGDDFQLTGGTTVLATEKPTVIDSTIQSEFPTYGFNCEFGWGSHKTFCHWEHDNHVQLKWSVLTSKTGPIQDHTGDGNFIYSQADENQKGKVARLVSPVVYSQNSAHCMTFWYHMSGSHVGTLRVKLRYQKPEEYDQLVWMAIGHQGDHWKEGRVLLHKSLKLYQVIFEGEIGKGNLGGIAVDDISINNHISQEDCAKPADLDKKNPEIKIDETGSTPGYEGEGEGDKNISRKPGNVLKTLDPRSGSKENLYFQG
Turning to B3, the “Binding to SEMA3A” value was “No” and the “SEMA 3A-FC binding” value is “No binding”.

B4: Trap AG: NRP1 trap a1a2b2, aa about 22-280, 431-583 and 631-700; SEQ ID NOs 57/58 (protein)
chain: MERGLPLLCAVLALVLAPAGAFRNDKCGDTIKIESPGYLTSPGYPHSYHPSEKCEWLIQAPDPYQRIMINFNPHFDLEDRDCKYDYVEVFDGENENGHFRGKFCGKIAPPPVVSSGPFLFIKFVSDYETHGAGFSIRYELFKRGPECSQNYTTPSGVIKSPGFPEKYPNSLECTYIVFAPKMSEIILEFESFDLEPDSNPPGGMFCRYDRLEIWDGFPDVGPHIGRYCGQKTPGRIRSSSGILSMVFYTDSAIAKEGFSANYSVLQSSVSEDFKKITDYPCSGMLGMVSGLISDSQITSSNQGDRNWMPENIRLVTSRSGWALPPAPHSYINEWLQIDLGEEKIVRGIIIQGGKHRENKVFMRKFKIGYSNNGSDWKMIMDDSKRKAKSFEGNNNYDTPELRTFPALSTRFIRIYPERATHGGLGLRMELLGCRSGSKENLYFQG
Turning to B4, the “Binding to SEMA3A” value is “Yes”.

B5: Trap Q: NRP1 trap a1a2-b1b2, aa about 22-583, Y297A; SEQ ID NOs 79/80 (protein)
chain: FRNDKCGDTIKIESPGYLTSPGYPHSYHPSEKCEWLIQAPDPYQRIMINFNPHFDLEDRDCKYDYVEVFDGENENGHFRGKFCGKIAPPPVVSSGPFLFIKFVSDYETHGAGFSIRYELFKRGPECSQNYTTPSGVIKSPGFPEKYPNSLECTYIVFAPKMSEIILEFESFDLEPDSNPPGGMFCRYDRLEIWDGFPDVGPHIGRYCGQKTPGRIRSSSGILSMVFYTDSAIAKEGFSANYSVLQSSVSEDFKCMEALGMESGEIHSDQITASSQASTNWSAERSRLNYPENGWTPGEDSYREWIQVDLGLLRFVTAVGTQGAISKETKKKYYVKTYKIDVSSNGEDWITIKEGNKPVLFQGNTNPTDVVVAVFPKPLITRFVRIKPATWETGISMRFEVYGCKITDYPCSGMLGMVSGLISDSQITSSNQGDRNWMPENIRLVTSRSGWALPPAPHSYINEWLQIDLGEEKIVRGIIIQGGKHRENKVFMRKFKIGYSNNGSDWKMIMDDSKRKAKSFEGNNNYDTPELRTFPALSTRFIRIYPERATHGGLGLRMELLGCRSGSKENLYFQG
With B5, the “Binding to SEMA3A” value is given as “No” and the “SEMA 3A-FC binding” value is recorded as “No binding”.

B6: Trap Y: NRP1 trap a1a2-c, aa about 22-274 and 584-856; SEQ ID NOs 91/92 (protein)
chain: FRNDKCGDTIKIESPGYLTSPGYPHSYHPSEKCEWLIQAPDPYQRIMINFNPHFDLEDRDCKYDYVEVFDGENENGHFRGKFCGKIAPPPVVSSGPFLFIKFVSDYETHGAGFSIRYELFKRGPECSQNYTTPSGVIKSPGFPEKYPNSLECTYIVFAPKMSEIILEFESFDLEPDSNPPGGMFCRYDRLEIWDGFPDVGPHIGRYCGQKTPGRIRSSSGILSMVFYTDSAIAKEGFSANYSVLQSSVSEDFKEVEAPTAGPTTPNGNLVDECDDDQANCHSGTGDDFQLTGGTTVLATEKPTVIDSTIQSEFPTYGFNCEFGWGSHKTFCHWEHDNHVQLKWSVLTSKTGPIQDHTGDGNFIYSQADENQKGKVARLVSPVVYSQNSAHCMTFWYHMSGSHVGTLRVKLRYQKPEEYDQLVWMAIGHQGDHWKEGRVLLHKSLKLYQVIFEGEIGKGNLGGIAVDDISINNHISQEDCAKPADLDKKNPEIKIDETGSTPGYEGEGEGDKNISRKPGNVLKTLDPRSGSKENLYFQG
As for B6, the “Binding to SEMA3A” value is “No” and the Kd is above 750 nM.

B7: Trap AF: NRP1 trap a1a2b2c, aa 1-280 and 431-856 incl. SP; SEQ ID NOs 55/56 (protein)
chain: MERGLPLLCAVLALVLAPAGAFRNDKCGDTIKIESPGYLTSPGYPHSYHPSEKCEWLIQAPDPYQRIMINFNPHFDLEDRDCKYDYVEVFDGENENGHFRGKFCGKIAPPPVVSSGPFLFIKFVSDYETHGAGFSIRYELFKRGPECSQNYTTPSGVIKSPGFPEKYPNSLECTYIVFAPKMSEIILEFESFDLEPDSNPPGGMFCRYDRLEIWDGFPDVGPHIGRYCGQKTPGRIRSSSGILSMVFYTDSAIAKEGFSANYSVLQSSVSEDFKKITDYPCSGMLGMVSGLISDSQITSSNQGDRNWMPENIRLVTSRSGWALPPAPHSYINEWLQIDLGEEKIVRGIIIQGGKHRENKVFMRKFKIGYSNNGSDWKMIMDDSKRKAKSFEGNNNYDTPELRTFPALSTRFIRIYPERATHGGLGLRMELLGCEVEAPTAGPTTPNGNLVDECDDDQANCHSGTGDDFQLTGGTTVLATEKPTVIDSTIQSEFPTYGFNCEFGWGSHKTFCHWEHDNHVQLKWSVLTSKTGPIQDHTGDGNFIYSQADENQKGKVARLVSPVVYSQNSAHCMTFWYHMSGSHVGTLRVKLRYQKPEEYDQLVWMAIGHQGDHWKEGRVLLHKSLKLYQVIFEGEIGKGNLGGIAVDDISINNHISQEDCAKPADLDKKNPEIKIDETGSTPGYEGEGEGDKNISRKPGNVLKTLDPRSGSKENLYFQG
Consider B7, for which the “Binding to SEMA3A” value was “No” and the “SEMA 3A-FC binding” value is “No binding”.
